Measurements as given in article PMC6369299, “A heterodimeric glutathione S-transferase that stereospecifically breaks lignin's β(R)-aryl ether bond reveals the diversity of bacterial β-etherases” (The Journal of Biological Chemistry, 2018).
Numbering of substitutions follows the chain as printed. Names and notes keep the numbering of the source.

Experiments:
NaLigE = molecular target: T1, NaLigE (Novosphingobium aromaticivorans, UniProt Q2G5N2); assay: initial rate of GS-HPV formation by HPLC, Michaelis-Menten fit; format: biochemical; settings: racemic MPHPV added, concentration counted as β(R); 5 mM GSH, 25 mM Tris-HCl pH 8.0, 25 mM NaCl, 25 °C; per subunit of the homodimer
T1 construct: gene Saro_2405; recombinant from E. coli; N-terminal His8 tag cut by TEV (SAIAG- left); homodimer
T1 sequence (Q2G5N2 1-279): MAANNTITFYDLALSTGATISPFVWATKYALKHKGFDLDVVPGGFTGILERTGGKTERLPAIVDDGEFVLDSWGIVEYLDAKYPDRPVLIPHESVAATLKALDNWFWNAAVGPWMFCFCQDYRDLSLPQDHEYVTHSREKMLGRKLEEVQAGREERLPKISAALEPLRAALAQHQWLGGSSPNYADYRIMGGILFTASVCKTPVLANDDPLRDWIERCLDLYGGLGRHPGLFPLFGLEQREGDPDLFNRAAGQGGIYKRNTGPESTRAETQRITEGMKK
From the text: initial rate of GS-HPV formation by HPLC, Michaelis-Menten fit on NaLigE

NaLigF1 = molecular target: T2, NaLigF1 (Novosphingobium aromaticivorans, UniProt Q2G6J3); assay: HPLC end-point conversion of MPHPV; format: biochemical; settings: β(S)-MPHPV left after BaeA+BaeB reaction on racemic MPHPV; GSH, 25 mM Tris-HCl pH 8.0, 25 mM NaCl, 30 °C
T2 construct: gene Saro_2091; recombinant, purified as described previously
T2 sequence (Q2G6J3 11-257 limits assumed): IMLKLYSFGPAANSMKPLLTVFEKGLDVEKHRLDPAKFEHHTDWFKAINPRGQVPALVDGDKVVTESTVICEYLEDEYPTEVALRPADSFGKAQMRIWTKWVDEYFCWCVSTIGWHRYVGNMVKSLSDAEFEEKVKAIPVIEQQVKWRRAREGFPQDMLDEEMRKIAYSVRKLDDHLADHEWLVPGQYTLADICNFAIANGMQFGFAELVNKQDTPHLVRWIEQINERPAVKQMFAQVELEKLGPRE

[1] = substrate: COc1cc(C(=O)[C@@H](CO)Oc2ccccc2OC)ccc1O; assay: initial rate of GS-HPV formation by HPLC, Michaelis-Menten fit; format: biochemical, Novosphingobium aromaticivorans; settings: racemic MPHPV added, concentration counted as β(R), 5 mM GSH, 25 mM Tris-HCl pH 8.0, 25 mM NaCl, 25 °C, per heterodimer
From the text: initial rate of GS-HPV formation by HPLC, Michaelis-Menten fit on BaeAB

## COc1cc(C(=O)[C@@H](CO)Oc2ccccc2OC)ccc1O [β(R)-MPHPV]
NaLigE
  Km: 7 ± 1 µM

## COc1cc(C(=O)[C@H](CO)Oc2ccccc2OC)ccc1O [β(S)-MPHPV]
NaLigF1
  HPLC end-point conversion of MPHPV: upon the addition of NaLigF1, the MPHPV was completely converted into GS-HPV and guaiacol

B1: BaeAB (Novosphingobium aromaticivorans DSM 12444) (protein)
chain: MDEVSLYHWEPNANSGKPMLALMEKGVPFSSHYIDMLQFDQHKPEYLAINPQGTIPAMTHNGQVLTESTAIMEYVNDRFDGPDLMPADAQDRWRVRWWMKFMDQWLGPSFSMIGWSVFVGPMVRQRDPAELAAAIDRIPLPERRTAWRKAINGDFSESEMAESRRRVGLGIAKLEEELGKRPYVGSNQYSLADINIFNSTYSLPISQPDLAGKDRTPNIMRWLKRVYTREAVKKTWAMGKTDLAHRYGLIMAEIEG
notes: co-expressed in E. coli B834, His8 tag on BaeB cut by TEV leaving SAIAG- linked to Ser2 (Met1 not coded); heterodimer, ~59 kDa by GPC; with Glutathione S-transferase-like protein (beta-etherase subunit BaeB)
[1]
  Km: 20 ± 3 µM
  kcat: 2.9 ± 0.3 s⁻¹
  kcat/Km: 150000 ± 30000 M⁻¹ s⁻¹

B2: BaeAB (Novosphingobium aromaticivorans DSM 12444; S15A) (protein)
chain: B1 chain with S15A
notes: as for B1
[1]
  Km: 100 ± 20 µM
  kcat: 2.4 ± 0.3 s⁻¹
  kcat/Km: 23000 ± 6000 M⁻¹ s⁻¹

B3: BaeAB (Novosphingobium aromaticivorans DSM 12444; N14A) (protein)
chain: B1 chain with N14A
notes: as for B1
[1]
  Km: 250 ± 60 µM
  kcat: 0.14 ± 0.02 s⁻¹
  kcat/Km: 500 ± 200 M⁻¹ s⁻¹
